As usually defined, the Kd is the equilibrium constant for the complex coming apart. High values mean weaker binding, low ones tighter binding.

For this assay, the target named is T1, staphylocoagulase SC(1-246), unlabeled (UniProt P17855 27-272).
T1 chain: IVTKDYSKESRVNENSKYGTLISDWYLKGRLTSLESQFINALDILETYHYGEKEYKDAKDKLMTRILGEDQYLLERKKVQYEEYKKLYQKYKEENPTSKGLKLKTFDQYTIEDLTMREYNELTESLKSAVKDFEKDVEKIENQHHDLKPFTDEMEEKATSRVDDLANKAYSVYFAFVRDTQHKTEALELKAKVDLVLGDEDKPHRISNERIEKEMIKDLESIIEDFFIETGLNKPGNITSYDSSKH
In words: fluorescence competitive titration; competitor.

B1: GMA-2105 murine monoclonal antibody (antibody, V domains shown)
VH: EVKLEESGGGLVQPGGSMKLSCAASGFTFSDAWMDWVRQSPEKGLEWVAEIRTKANNHATYYAESVKGRFTISRDDSKSSVYLQMNSLRAEDTGIYYCTNVYYGNNDVKDYWGQGTSVTVSP
VL: DIVMTQSQKFMSTSVGDRVSVTCKASQNVDIYVAWYQQKPGQSPKALIYSASYRFSGVPDRFTGSGSGTDFTLSISNVQSEDLAEYFCQQYNNYPYTFGGGTKLEIKR
B1 returned a Kd of 0.71 nM.

B2: Chimeric GMA-2105 (antibody, V domains shown)
VH: EVKLEESGGGLVQPGGSMKLSCAASGFTFSDAWMDWVRQSPEKGLEWVAEIRTKANNHATYYAESVKGRFTISRDDSKSSVYLQMNSLRAEDTGIYYCTNVYYGNNDVKDYWGQGTSVTVSP
VL: DIVMTQSQKFMSTSVGDRVSVTCKASQNVDIYVAWYQQKPGQSPKALIYSASYRFSGVPDRFTGSGSGTDFTLSISNVQSEDLAEYFCQQYNNYPYTFGGGTKLEIKR
In turn, B2 displayed a dissociation constant Kd of 0.75 nM.

Source of the values: patent US10906989 (dated 2021).
